In patent publication US20220152103A1 (LEUCID BIO, published 2022):

Molecular target: T1, human HER2 on tumor cells (MDA-MB-468-HER2++ cells transduced with human HER2; T47D cells) (human, UniProt P04626 23-1255)
T1 construct: whole, on cells; also called ErbB2
Assay: flow cytometry sorting of MDA-MB-468-HER2++ cells

B1: ICR12 rat anti-human HER2 antibody (antibody, V domains shown)
VH: EVQLQESGPGLVKPSQSLSLTCSVTGYSITTDYWGWIRKFPGNKMEWMGYISYSGSTGYNPSLKSRISITRDTSKSQFFLQLNSVTTEDTATYYCARYSSLDYWGRGVMVAVSS
VL: DVVMTQTPPSLSVAIGQSVSISCKSSQSLVYSDGKTYLHWLLQSPGRSPKRLIYQVSNLGSGVPDRFSGTGSQKDFTLKISRVEAEDLGVYYCAQTTHFPLTFGSGTKLEIK
notes: VH and VL stand within it
Question: Does B1 bind?
Answer: binds
